Data published in the supplement of paper PMC10201428.
± gives the standard deviation of the averaged measurements.

B1: library; a variant is named by its letters at N, in order (parent)
chain: AATGTTGTTGATGCAACCATAAAGTGATATTTAATAATTATTTATAATCAGCAACTTAACCACAAAACAACCATATATTGATATNTCACAAAACAACCATAANTTGATATTTTTGTGAATCGAGTATTTCAGCAAAACTACTGCAGTAAGAA

Experiments:
[1] = variants of: B1; assay: relative integration efficiency (T-LR orientation) vs wild-type transposon end (log2 (normalized fold change)); transposon end mutated: left end; higher = more efficient transposition; details: with VchCAST RNA-guided transposition machinery (E. coli BL21(DE3) host, lacZ target)
Protocol: (§1)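 Pooled, barcoded VchCAST (Tn6677) mini-transposon donor libraries; each variable transposon-end sequence sits in a fixed pDonor mini-transposon context (10-bp barcode and cargo not included). Left- or right-end libraries were co-transformed with pEffector (TniQ-Cascade, TnsABC, lacZ crRNA, T7, 0.1 mM IPTG) into E. coli BL21(DE3) and grown 18 h at 37 C. T-LR and T-RL junction amplicons were sequenced; output/input barcode fold change was normalised to the mean of four wild-type barcodes and log2-transformed. Two biological replicates; zero-count/undetected variants carry floor values (-10 / -15), censored here. Barcode uncoupling by PCR recombination adds noise.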

[2] = variants of: B1; assay: relative integration efficiency (T-RL orientation) vs wild-type transposon end (log2 (normalized fold change)); transposon end mutated: left end; higher = more efficient transposition; details: with VchCAST RNA-guided transposition machinery (E. coli BL21(DE3) host, lacZ target)
Protocol: as §1

CG A1C A2C
relative integration efficiency (log2) [1]: -0.0923 ± 0.12
relative integration efficiency (log2) [2]: -0.242 ± 0.0032

TA A22T G24T T31C A33C T76A T78G C87A T104G T113A
relative integration efficiency (log2) [1]: -0.379 ± 0.48
relative integration efficiency (log2) [2]: -0.685 ± 0.35

TA A23G G24T A33T T76A T78A T84A C87A A96C T112G T113C
relative integration efficiency (log2) [1]: -0.309 ± 0.24
relative integration efficiency (log2) [2]: 0.136 ± 0.2

TA T76A T78A T84A C87A A96C T110A T113A
relative integration efficiency (log2) [1]: 0.0631 ± 0.19
relative integration efficiency (log2) [2]: 0.318 ± 0.081

TA A16C G24T T32G A33C A70C T76A T86G T104A T110A T113A
relative integration efficiency (log2) [1]: -0.474 ± 0.24
relative integration efficiency (log2) [2]: -0.791 ± 0.56

TA G24A T30A A70C T76A T84A C87A A96C T110A T113A
relative integration efficiency (log2) [1]: 0.37 ± 0.55
relative integration efficiency (log2) [2]: 0.271 ± 0.25

TA T76A T78G C87A A96C T110A T113A
relative integration efficiency (log2) [1]: -0.0777 ± 0.55
relative integration efficiency (log2) [2]: -0.0885 ± 0.14

TA A23G G24T A33T A70C T76A T86G T104G T113A
relative integration efficiency (log2) [1]: 0.529 ± 0.03
relative integration efficiency (log2) [2]: -0.0666 ± 0.38

TA A22T G24T T31C A33C A70C T76A T86G T104A T110A T113A
relative integration efficiency (log2) [1]: -0.292 ± 0.24
relative integration efficiency (log2) [2]: -0.768 ± 0.47

TA T76A A77G C87T A96C T110A T113A
relative integration efficiency (log2) [1]: -0.108 ± 0.52
relative integration efficiency (log2) [2]: -0.522 ± 0.3

TA A23G G24T A33T A70C T76A T86G T104A T110A T113A
relative integration efficiency (log2) [1]: -0.032 ± 0.14
relative integration efficiency (log2) [2]: -0.568 ± 0.3

TA G24A T30A T76A T78G C87A T104G T113A
relative integration efficiency (log2) [1]: -0.302 ± 0.11
relative integration efficiency (log2) [2]: -0.161 ± 0.15

CA G24A T30A A96C T110A T113A
relative integration efficiency (log2) [1]: -0.0456 ± 0.31
relative integration efficiency (log2) [2]: -0.302 ± 0.28

TG A16C G24T T32G A33C A70C T76A T86G
relative integration efficiency (log2) [1]: -0.468 ± 0.42
relative integration efficiency (log2) [2]: -0.731 ± 0.36

TA A16C G24T T32G A33C T76A A77G C87T A96C T112G T113C
relative integration efficiency (log2) [1]: -0.88 ± 1.2
relative integration efficiency (log2) [2]: -0.489 ± 0.45

CC T104A
relative integration efficiency (log2) [1]: -0.472 ± 0.64
relative integration efficiency (log2) [2]: -0.478 ± 0.0072

CC A102T T104A T105A
relative integration efficiency (log2) [1]: -0.708 ± 0.07
relative integration efficiency (log2) [2]: -0.322 ± 0.48

CA A16C G24T T32G A33C A102T T111C T113C
relative integration efficiency (log2) [1]: -0.854 ± 0.58
relative integration efficiency (log2) [2]: -0.751 ± 0.51

TA A16C G24T T32G A33C A70C T76A T84A C87A A102T T111C T113C
relative integration efficiency (log2) [1]: -1.61 ± 0.92
relative integration efficiency (log2) [2]: -0.84 ± 0.38

CC A22T A23T G24C T25A T76A A77T T78A T79A A102T T104A T105A
relative integration efficiency (log2) [1]: -2.83 ± 0.82
relative integration efficiency (log2) [2]: -3 ± 1.3

CA T104A T110A T113A
relative integration efficiency (log2) [1]: -0.182 ± 0.39
relative integration efficiency (log2) [2]: -0.656 ± 0.2

TA A70C T76A T84A C87A A96C T110A T113A
relative integration efficiency (log2) [1]: 0.233 ± 0.15
relative integration efficiency (log2) [2]: 0.0312 ± 0.25

TA A23G G24T A33T T76A T78A T84A C87A T104A T110A T113A
relative integration efficiency (log2) [1]: 0.471 ± 0.38
relative integration efficiency (log2) [2]: 0.117 ± 0.25

TA A22T G24T T31C A33C T76A T78A T84A C87A T104G T113A
relative integration efficiency (log2) [1]: -0.19 ± 0.56
relative integration efficiency (log2) [2]: -0.579 ± 0.53

TA A16C G24T T32G A33C A70C T76A T84A C87A T104G T113A
relative integration efficiency (log2) [1]: -1.55 ± 1.7
relative integration efficiency (log2) [2]: -0.951 ± 0.57

CG A16T A70T A96T
relative integration efficiency (log2) [1]: -1.37 ± 0.86
relative integration efficiency (log2) [2]: -0.887 ± 0.43

CG A15C A16C
relative integration efficiency (log2) [1]: -0.641 ± 0.48
relative integration efficiency (log2) [2]: 0.081 ± 0.27

CA A23G G24T A33T T104A T110A T113A
relative integration efficiency (log2) [1]: -0.166 ± 0.3
relative integration efficiency (log2) [2]: -0.424 ± 0.22

CG A1C
relative integration efficiency (log2) [1]: 0.307 ± 0.19
relative integration efficiency (log2) [2]: -0.0236 ± 0.1

CG A1T
relative integration efficiency (log2) [1]: 0.281 ± 0.54
relative integration efficiency (log2) [2]: 0.063 ± 0.045

CG A1G
relative integration efficiency (log2) [1]: 0.115 ± 0.63
relative integration efficiency (log2) [2]: 0.133 ± 0.095

TG
relative integration efficiency (log2) [1]: 0.322 ± 0.57
relative integration efficiency (log2) [2]: 0.126 ± 0.046

TA A23G G24T A33T A70C T76A T84A C87A A102T T111C T113C
relative integration efficiency (log2) [1]: -0.166 ± 0.29
relative integration efficiency (log2) [2]: 0.133 ± 0.28

TA A22T G24T T31C A33C A70C T76A T84A C87A T104G T113A
relative integration efficiency (log2) [1]: -0.566 ± 0.36
relative integration efficiency (log2) [2]: -0.81 ± 0.5

CG A11G
relative integration efficiency (log2) [1]: -0.67 ± 0.84
relative integration efficiency (log2) [2]: 0.0387 ± 0.29

CG A11T
relative integration efficiency (log2) [1]: -0.735 ± 0.14
relative integration efficiency (log2) [2]: -0.00672 ± 0.034

CG A11C
relative integration efficiency (log2) [1]: 0.113 ± 0.091
relative integration efficiency (log2) [2]: -0.401 ± 0.34

CG A16C G24T T30A
relative integration efficiency (log2) [1]: -0.135 ± 0.14
relative integration efficiency (log2) [2]: -0.3 ± 0.21

TA A23G G24T A33T T76A T78G C87A A96C T110A T113A
relative integration efficiency (log2) [1]: 0.938 ± 0.63
relative integration efficiency (log2) [2]: 0.884 ± 0.19

TA G24A T30A T76A T78G C87A A96C T112G T113C
relative integration efficiency (log2) [1]: 0.0921 ± 0.22
relative integration efficiency (log2) [2]: 0.299 ± 0.056

TA A22T G24T T31C A33C A70C T76A T84A C87A A96C T110A T113A
relative integration efficiency (log2) [1]: -0.841 ± 0.82
relative integration efficiency (log2) [2]: -0.504 ± 0.43

CA A22T G24T T31C A33C A96C T110A T113A
relative integration efficiency (log2) [1]: -0.837 ± 0.2
relative integration efficiency (log2) [2]: -0.802 ± 0.25

CA A102T T111C T113C
relative integration efficiency (log2) [1]: 0.118 ± 0.59
relative integration efficiency (log2) [2]: -0.254 ± 0.41

TA A23G G24T A33T T76A T78G C87A T104A T110A T113A
relative integration efficiency (log2) [1]: 0.283 ± 0.28
relative integration efficiency (log2) [2]: 0.0976 ± 0.22

CG A1C A2C T3G G4T
relative integration efficiency (log2) [1]: -0.0427 ± 0.68
relative integration efficiency (log2) [2]: -0.346 ± 0.11

TA G24A T30A T76A A77G C87T A102T T111C T113C
relative integration efficiency (log2) [1]: -0.112 ± 0.15
relative integration efficiency (log2) [2]: -0.456 ± 0.55

TA G24A T30A T76A T78A T84A C87A A96C T110A T113A
relative integration efficiency (log2) [1]: 0.0142 ± 0.25
relative integration efficiency (log2) [2]: 0.0999 ± 0.18

TG A16C G24T T30A T76A A77G C87T
relative integration efficiency (log2) [1]: -0.0311 ± 0.37
relative integration efficiency (log2) [2]: -0.534 ± 0.47

CA A22T G24T T31C A33C T104G T113A
relative integration efficiency (log2) [1]: -0.697 ± 0.046
relative integration efficiency (log2) [2]: -0.629 ± 0.23

CA A16C G24T T32G A33C T104G T113A
relative integration efficiency (log2) [1]: -0.783 ± 0.61
relative integration efficiency (log2) [2]: -0.765 ± 0.33

TA A16C G24T T32G A33C T76A T78A T84A C87A T104A T110A T113A
relative integration efficiency (log2) [1]: -0.781 ± 0.91
relative integration efficiency (log2) [2]: -0.706 ± 0.26

TA G24A T30A A70C T76A T86G T104A T110A T113A
relative integration efficiency (log2) [1]: -0.21311 ± 4.7e-05
relative integration efficiency (log2) [2]: -0.36 ± 0.27

CA G24A T30A T104G T113A
relative integration efficiency (log2) [1]: -0.317 ± 0.27
relative integration efficiency (log2) [2]: -0.387 ± 0.13

CA A23G G24T A33T A102T T111C T113C
relative integration efficiency (log2) [1]: -0.354 ± 0.18
relative integration efficiency (log2) [2]: -0.967 ± 0.39

TA A16C G24T T32G A33C A70C T76A T86G A96C T110A T113A
relative integration efficiency (log2) [1]: -0.842 ± 0.018
relative integration efficiency (log2) [2]: -0.63 ± 0.38

TA T76A A77G C87T A96C T112G T113C
relative integration efficiency (log2) [1]: -0.4 ± 0.34
relative integration efficiency (log2) [2]: -0.203 ± 0.3

TA T76A A77G C87T T104A T110A T113A
relative integration efficiency (log2) [1]: 0.28 ± 0.36
relative integration efficiency (log2) [2]: -0.703 ± 0.35

TA A23G G24T A33T T76A A77G C87T T104A T110A T113A
relative integration efficiency (log2) [1]: 0.0613 ± 0.2
relative integration efficiency (log2) [2]: -0.917 ± 0.47
